# Experimental data reported in patent publication US20240166765A1 (ICONIC THERAPEUTICS, published 2024).
# Like-named read-outs stand apart in the source and are kept apart here.
# Key:
# [1] = molecular target: T1, pig TF-His (pig (Sus scrofa)); assay: SPR (Biacore), antibody captured by anti-human IgG on CM5 chip, pig TF-His in solution, 1:1 model
# T1 construct: also called pig TF ECD-His; pTF
# T1 chain: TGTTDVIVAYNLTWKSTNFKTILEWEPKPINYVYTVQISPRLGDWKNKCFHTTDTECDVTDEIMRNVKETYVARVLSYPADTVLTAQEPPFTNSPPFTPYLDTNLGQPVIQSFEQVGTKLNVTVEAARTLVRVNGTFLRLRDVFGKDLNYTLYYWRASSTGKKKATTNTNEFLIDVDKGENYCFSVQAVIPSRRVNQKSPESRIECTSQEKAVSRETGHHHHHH
# [2] = molecular target: T2, rabbit TF-His (rabbit (Oryctolagus cuniculus), UniProt P24055 33-250); assay: SPR (Biacore), antibody captured by anti-human IgG on CM5 chip, rabbit TF-His in solution, 1:1 model
# T2 construct: also called rabbit TF ECD-His
# T2 sequence (P24055 other isoform, or with tags, fused parts or gaps): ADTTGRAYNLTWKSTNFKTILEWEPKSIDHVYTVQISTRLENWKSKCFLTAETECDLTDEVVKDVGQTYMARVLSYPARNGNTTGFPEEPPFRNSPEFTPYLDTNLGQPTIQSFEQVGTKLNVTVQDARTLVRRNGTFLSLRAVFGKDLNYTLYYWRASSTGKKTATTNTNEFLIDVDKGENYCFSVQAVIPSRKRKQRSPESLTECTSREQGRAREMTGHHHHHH
# [3] = molecular target: T3, relipidated TF (UniProt P13726 33-295, limits assumed); assay: cell-based or functional assay
# [4] = molecular target: T4, human TF ECD-His6 (human, UniProt P13726 33-251); assay: SPR (Biacore), antibody on chip, TF-His titrated
# T4 construct: made in Expi293 cells; the entry holds the ECD with the C-terminal TG-His6; also called TF-His; hTF
# [5] = molecular target: T5, cynomolgus TF ECD-His6 (cynomolgus monkey (Macaca fascicularis)); assay: SPR (Biacore), antibody on chip, TF-His titrated
# T5 construct: made in Expi293 cells; also called TF-His; cTF
# T5 chain: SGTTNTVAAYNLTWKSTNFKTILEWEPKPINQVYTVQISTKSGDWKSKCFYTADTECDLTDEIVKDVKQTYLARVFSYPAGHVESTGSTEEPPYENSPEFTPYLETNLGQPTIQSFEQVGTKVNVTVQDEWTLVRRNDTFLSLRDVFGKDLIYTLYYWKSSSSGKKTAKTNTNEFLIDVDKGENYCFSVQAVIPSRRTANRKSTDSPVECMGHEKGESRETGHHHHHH
# [6] = molecular target: T3, relipidated TF; assay: cell-based or functional assay; remark: listed apart in the source
# [7] = molecular target: T3, relipidated TF; assay: cell-based or functional assay; remark: listed apart in the source
# [8] = molecular target: rTF (rat TF) on HEK293 cells (rat, UniProt P42533 29-252); assay: live cell staining of transfected HEK293, flow cytometry
# rTF (rat TF) on HEK293 cells, sequence (P42533 29-252): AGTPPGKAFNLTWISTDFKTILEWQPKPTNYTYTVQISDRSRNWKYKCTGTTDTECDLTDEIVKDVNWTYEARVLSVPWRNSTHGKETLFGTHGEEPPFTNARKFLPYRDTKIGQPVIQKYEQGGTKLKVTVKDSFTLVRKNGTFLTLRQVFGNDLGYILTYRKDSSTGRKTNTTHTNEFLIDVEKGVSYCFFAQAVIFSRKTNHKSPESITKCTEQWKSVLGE
# [9] = molecular target: T3, relipidated TF; assay: cell-based or functional assay; remark: listed apart in the source
# [10] = molecular target: T4, human TF ECD-His6; assay: BLI (ForteBio Octet)
# [11] = molecular target: T5, cynomolgus TF ECD-His6; assay: BLI (ForteBio Octet)
# [12] = molecular target: T6, human Tissue Factor on MDA-MB-231 cells (human, UniProt P13726 33-295); assay: cell-based or functional assay
# [13] = molecular target: T6, human Tissue Factor on MDA-MB-231 cells; assay: flow cytometry, MDA-MB-231 cells; binding of 20 nM FVII-Fc-Alexa488 (competitor) left at 83 nM Ab
# [14] = molecular target: T6, human Tissue Factor on MDA-MB-231 cells; assay: cell-based or functional assay; remark: listed apart in the source
binder,measurement,setting,value
"43D7 (antibody, human IgG1, kappa, V domains shown, Human IgG1; also called antibody 43D7) VH: QVQLQQWGAGLLKPSETLSLTCAVYGGSLSGYYWSWIRQPPGKGLEWIGEIGASGSTRYNPSLKSRVTISVDTSKNQFSLKLSSVTAADTAVYYCARDTPYYYEGGYYYYMDVWGKGTTVTVSS VL: EIVLTQSPGTLSLSPGERATLSCRASDSVDSSYLAWYQQKPGQAPRLLIYGAFSRANGIPDRFSGSGSGTDFTLTISRLEPEDFAVYYCQQAGVVPYTFGGGTKVEIKR",Kd,[1],8.8 nM
same,Kd,[2],6.8 nM
"43D8 (antibody, human IgG1, kappa, V domains shown, Human IgG1; also called antibody 43D8; 43D8 mAb) VH: QVQLQQWGAGLLKPSETLSLTCAVYGGSLSGYYWSWIRQPPGKGLEWIGEIGASGSTRYNPSLKSRVTISVDTSKNQFSLKLSSVTAADTAVYYCARDTPYYYEGGYYYYMDVWGKGTTVTVSS VL: EIVLTQSPGTLSLSPGERATLSCRASQSVSSSFLAWYQQKPGQAPRLLIYGAYSRATGIPDRFSGSGSGTDFTLTISRLEPEDFAVYYCQQAGVVPYTFGGGTKVEIKR",Kd,[1],19.2 nM
same,Kd,[2],7.7 nM
"39A (antibody, human IgG1, V domains shown, human IgG1) VH: QVQLVQSGAEVKKPGSSVKVSCKASGGTFSSNAIGWVRQAPGQGLEWMGSIIPIIGFANYAQKFQGRVTITADESTSTAYMELSSLRSEDTAVYYCARDSGYYYGASSFGMDVWGQGTTVTVSS VL: EIVMTQSPATLSVSPGERATLSCRASQSVSSNLAWYQQKPGQAPRLLIYGASTRATGIPARFSGSGSGTEFTLTISSLQSEDFAVYYCEQYNNLPLTFGGGTKVEIK","TGA with 10 min pre-incubation, 10 nM Ab: % Peak IIa",[3],11%
same,"TGA with 10 min pre-incubation, 10 nM Ab: Lag Time",[3],20.9 min
same,"TGA with 10 min pre-incubation, 10 nM Ab: Peak IIa",[3],30 nM
same,"TGA with 10 min pre-incubation, 10 nM Ab: ttPeak",[3],30.8 min
same,"TGA with 10 min pre-incubation, 50 nM Ab: % Peak IIa",[3],8%
same,"TGA with 10 min pre-incubation, 50 nM Ab: Lag Time",[3],29 min
same,"TGA with 10 min pre-incubation, 50 nM Ab: Peak IIa",[3],21 nM
same,"TGA with 10 min pre-incubation, 50 nM Ab: ttPeak",[3],39.7 min
same,"TGA with 10 min pre-incubation, 100 nM Ab: % Peak IIa",[3],6%
same,"TGA with 10 min pre-incubation, 100 nM Ab: Lag Time",[3],32.1 min
same,"TGA with 10 min pre-incubation, 100 nM Ab: Peak IIa",[3],17 nM
same,"TGA with 10 min pre-incubation, 100 nM Ab: ttPeak",[3],43.2 min
same,Kd,[4],0.09 nM
same,Kd,[5],0.08 nM
same,"TGA without pre-incubation, 10 nM Ab: % ETP",[6],55%
same,"TGA without pre-incubation, 10 nM Ab: % Peak IIa",[6],20%
same,"TGA without pre-incubation, 10 nM Ab: ETP",[6],1330 nM·min
same,"TGA without pre-incubation, 10 nM Ab: Lag Time",[6],12.1 min
same,"TGA without pre-incubation, 10 nM Ab: Peak IIa",[6],82 nM
same,"TGA without pre-incubation, 10 nM Ab: ttPeak",[6],19.6 min
same,"TGA without pre-incubation, 50 nM Ab: % Peak IIa",[6],7%
same,"TGA without pre-incubation, 50 nM Ab: Lag Time",[6],30.5 min
same,"TGA without pre-incubation, 50 nM Ab: Peak IIa",[6],30 nM
same,"TGA without pre-incubation, 50 nM Ab: ttPeak",[6],40 min
same,"TGA without pre-incubation, 100 nM Ab: % Peak IIa",[6],6%
same,"TGA without pre-incubation, 100 nM Ab: Lag Time",[6],28.9 min
same,"TGA without pre-incubation, 100 nM Ab: Peak IIa",[6],26 nM
same,"TGA without pre-incubation, 100 nM Ab: ttPeak",[6],40.1 min
same,"TGA without pre-incubation, 10 nM Ab: % ETP",[7],58%
same,"TGA without pre-incubation, 10 nM Ab: % Peak IIa",[7],24%
same,"TGA without pre-incubation, 10 nM Ab: ETP",[7],1330 nM·min
same,"TGA without pre-incubation, 10 nM Ab: Lag Time",[7],12.4 min
same,"TGA without pre-incubation, 10 nM Ab: Peak IIa",[7],84 nM
same,"TGA without pre-incubation, 10 nM Ab: ttPeak",[7],20.7 min
same,"TGA without pre-incubation, 50 nM Ab: % Peak IIa",[7],8%
same,"TGA without pre-incubation, 50 nM Ab: Lag Time",[7],33.1 min
same,"TGA without pre-incubation, 50 nM Ab: Peak IIa",[7],29 nM
same,"TGA without pre-incubation, 50 nM Ab: ttPeak",[7],43.2 min
same,"TGA without pre-incubation, 100 nM Ab: % Peak IIa",[7],6%
same,"TGA without pre-incubation, 100 nM Ab: Lag Time",[7],38.1 min
same,"TGA without pre-incubation, 100 nM Ab: Peak IIa",[7],22 nM
same,"TGA without pre-incubation, 100 nM Ab: ttPeak",[7],48.3 min
same,binding result,[8],no binding (tested: 15 µg/ml (100 nM))
same,"decrease of peak IIa concentration, TGA with 10 min pre-incubation, 100 nM Ab",[9],93%
same,"decrease of peak IIa concentration, TGA without pre-incubation, 100 nM Ab",[9],91%
same,Kd,[10],0.83 nM
same,Kd,[11],0.57 nM
"25G (antibody, human IgG1, kappa, V domains shown, Human anti-TF IgG1) VH: QVQLVQSGAEVKKPGASVKVSCKASGYTFRSYGISWVRQAPGQGLEWMGWVAPYNGNTNYAQKLQGRVTMTTDTSTSTAYMELRSLRSDDTAVYYCARDAGTYSPYGYGMDVWGQGTTVTVSS VL: DIQMTQSPSTLSASVGDRVTITCRASQSISSWLAWYQQKPGKAPKLLIYKASSLESGVPSRFSGSGSGTEFTLTISSLQPDDFATYYCQQFQSLPPFTFGGGTKVEIKR","% FXa, 12.5 nM Ab",[12],99%
same,"% FXa, 25 nM Ab",[12],109%
same,"% FXa, 100 nM Ab",[12],116%
same,% FVIIa,[13],93%
same,"% IL8, 2.56 nM Ab",[14],60%
same,"% IL8, 6.4 nM Ab",[14],22%
same,"% IL8, 16 nM Ab",[14],16%
same,"% IL8, 40 nM Ab",[14],10%
same,"% IL8, 100 nM Ab",[14],9%
"25G (antibody, human IgG1, kappa, V domains shown, Human IgG1; also called antibody 25G) VH: QVQLVQSGAEVKKPGASVKVSCKASGYTFRSYGISWVRQAPGQGLEWMGWVAPYNGNTNYAQKLQGRVTMTTDTSTSTAYMELRSLRSDDTAVYYCARDAGTYSPYGYGMDVWGQGTTVTVSS VL: DIQMTQSPSTLSASVGDRVTITCRASQSISSWLAWYQQKPGKAPKLLIYKASSLESGVPSRFSGSGSGTEFTLTISSLQPDDFATYYCQQFQSLPPFTFGGGTKVEIKR",Kd,[1],26 nM
same,Kd,[2],75.5 nM
"25A (antibody, human IgG1, V domains shown, Human IgG1; also called antibody 25A) VH: QVQLVQSGAEVKKPGASVKVSCKASGYTFDVYGISWVRQAPGQGLEWMGWIAPYNGNTNYAQKLQGRVTMTTDTSTSTAYMELRSLRSDDTAVYYCARDAGTYSPFGYGMDVWGQGTTVTVSS VL: DIQMTQSPSTLSASVGDRVTITCRASQSISSWLAWYQQKPGKAPKLLIYKASSLESGVPSRFSGSGSGTEFTLTISSLQPDDFATYYCQQFQSLPPFTFGGGTKVEIK",Kd,[1],18.7 nM
same,Kd,[2],50.5 nM
"25A5-T (antibody, human IgG1, kappa, V domains shown, Human IgG1) VH: QVQLVQSGAEVKKPGASVKVSCKASGYTFDAYGISWVRQAPGQGLEWMGWIAPYSGNTNYAQKLQGRVTMTTDTSTSTAYMELRSLRSDDTAVYYCARDAGTYSPFGYGMDVWGQGTTVTVSS VL: DIQMTQSPSTLSASVGDRVTITCRASESISNWLAWYQQKPGKAPKLLIYKAYSLEYGVPSRFSGSGSGTEFTLTISSLQPDDFATYYCQQFQKLPPFTFGGGTKVEIKR",Kd,[1],4.5 nM
same,Kd,[2],5.4 nM
"25G9 (antibody, human IgG1, kappa, V domains shown, Human IgG1; also called antibody 25G9) VH: QVQLVQSGAEVKKPGASVKVSCKASGYTFRSYGISWVRQAPGQGLEWMGWVAPYSGNTNYAQKLQGRVTMTTDTSTSTAYMELRSLRSDDTAVYYCARDAGTYSPYGYGMDVWGQGTTVTVSS VL: DIQMTQSPSTLSASVGDRVTITCQASQSIDSWLAWYQQKPGKAPKLLIYSASYLESGVPSRFSGSGSGTEFTLTISSLQPDDFATYYCQRFQSLPPFTFGGGTKVEIKR",Kd,[1],3.3 nM
same,Kd,[2],4.2 nM
"25A5 (antibody, human IgG1, kappa, V domains shown, Human IgG1; also called antibody 25A5) VH: QVQLVQSGAEVKKPGASVKVSCKASGYTFDVYGISWVRQAPGQGLEWMGWIAPYSGNTNYAQKLQGRVTMTTDTSTSTAYMELRSLRSDDTAVYYCARDAGTYSPFGYGMDVWGQGTTVTVSS VL: DIQMTQSPSTLSASVGDRVTITCRASESISNWLAWYQQKPGKAPKLLIYKAYSLEYGVPSRFSGSGSGTEFTLTISSLQPDDFATYYCQQFQKLPPFTFGGGTKVEIKR",Kd,[1],5.2 nM
same,Kd,[2],5.4 nM
"25G1 (antibody, human IgG1, kappa, V domains shown, Human IgG1; also called antibody 25G1) VH: QVQLVQSGAEVKKPGASVKVSCKASGYTFRSYGISWVRQAPGQGLEWMGWVAPYSGNTNYAQKLQGRVTMTTDTSTSTAYMELRSLRSDDTAVYYCARDAGTYSPYGYGMDVWGQGTTVTVSS VL: DIQMTQSPSTLSASVGDRVTITCRASHSIDSWLAWYQQKPGKAPKLLIYKASYLESGVPSRFSGSGSGTEFTLTISSLQPDDFATYYCQLFQSLPPFTFGGGTKVEIKR",Kd,[1],2.6 nM
same,Kd,[2],3.6 nM
